Experimental data reported in the supplement of paper PMC10567573.

B1: OAS1 (parent)
chain: TPAKSLDKFIEDYLLPDTCFRMQI

Variants of: B1
Assay: protein stability index of a GFP-peptide fusion (GPS, HEK-293T) (PSI 1-6); higher = more stable
Settings: c terminus: a fixed tail appended
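Also: lentivirally expressed fusions sorted by FACS into six bins by GFP to DsRed ratio, PSI derived from sequencing read proportions per bin multiplied by bin number.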

Protein stability index: each site, then its substitutions
P16: T 2.68 | M 1.84 | Q 3.14 | V 3.9 | C 2.44 | W 1.9 | H 2.28 | E 1.93 | K 2.78 | I 2.41 | A 2.73 | Y 1.82 | R 3.61 | N 2.65 | S 2.49
L14: M 3.5 | D 1.77 | H 2.62 | G 2.84 | Y 3.1 | P 2.46 | C 2.35 | W 2.18 | S 1.74 | V 2.83 | R 1.8 | T 2.05 | I 2.08 | N 3.44 | K 2.37 | F 3.94 | Q 1.62 | E 1.74
D17: R 2.98 | T 2.03 | K 2.51 | L 3.49 | M 2.99 | N 1.77 | G 3.94 | Q 1.88 | E 2.69 | H 2.43 | S 2.79 | A 2.9 | Y 2.32 | P 3.25 | F 3.31
F20: A 2.23 | D 2.43 | L 2.2 | V 2.97 | N 1.95 | M 3.12 | T 2.21 | K 2.4 | S 2.28 | C 2.15 | H 1.47 | R 2.8 | W 3.38 | P 1.75 | E 1.97 | I 3.6 | Q 1.58 | Y 2.56 | G 1.74
R21: G 2.33 | K 2.46 | S 3.4 | W 1.43 | Y 2.44 | N 2.73 | I 2.93 | F 2.13 | V 3.2 | A 3.28 | P 1.31 | T 3.86 | L 3.64 | D 1.56 | Q 3.37 | M 2.31 | H 3.05
T18: F 2.45 | M 2.36 | C 3.48 | L 2.42 | Y 3.93 | H 2.22 | P 1.59 | R 3.05 | V 2.23 | E 3.65 | A 2.25 | N 2.41 | D 3.16 | G 3.04 | W 2.58 | I 2.04 | K 1.83 | Q 2.89
D12: T 2.58 | W 2.51 | Y 2.19
Q23: V 2.56 | M 3.2 | Y 3.27 | P 1.99 | K 1.54 | H 3.27 | S 5.04 | D 2.73 | F 2.13 | W 3.07 | E 2.6 | R 3.21 | T 2.48 | L 3.03 | G 3.25 | I 2.22 | C 3.21 | N 1.42 | A 3.37
M22: D 2.1 | W 2.45 | R 1.94 | E 2.23 | N 1.99 | K 1.98 | G 2.51 | A 1.93 | F 1.35 | T 2.21 | P 2.03 | L 2.39 | Q 1.5 | I 3.42 | Y 2.9 | C 2.94 | S 1.64 | H 2.28 | V 2.23
L15: N 2.21 | K 2.07 | P 2.31 | D 1.74 | F 3.79 | W 2.56 | G 2.43 | I 3.88 | S 2.26 | T 1.74 | Q 3.04 | A 1.72 | H 2.12 | R 3.08 | V 3.19 | E 3.04
I24: P 2.12 | S 1.84 | R 2.43 | L 2.15 | C 2.23 | V 2 | G 1.55 | A 1.74 | D 2.47 | H 2.22 | Y 1.56 | M 1.7 | F 2.76 | W 2.39 | E 1.85 | Q 1.67 | K 1.99 | N 1.76 | T 1.46
C19: V 3.28 | I 4.78 | Y 3.22 | D 1.62 | N 3.42 | F 2.51 | A 2.88 | L 2.02 | K 1.59 | W 3.2 | P 2.68 | T 2.24 | H 2.96 | G 2.44 | E 1.43 | R 3.1 | Q 2.3
Y13: M 2.12 | V 2.87 | C 3.56 | F 3.4 | T 1.9 | I 2.54 | Q 1.5 | P 1.57 | D 2.36 | W 3.04 | E 1.79 | G 1.85 | R 1.27 | A 1.98 | N 1.85 | L 3.57 | S 2.22
